Common to all, as to details: other: flavonoid as substrate; substrate inhibition equation (2); 37.0 °C
Substrate in data set [1]: O=C1C[C@@H](c2ccc(O)c(O)c2)Oc2cc(O)cc(O)c21
The data set can be described thus: not read.

Substrate in data set [2]: Oc1cc(O)c2c(c1)O[C@H](c1ccc(O)c(O)c1)[C@H](O)C2
The data set can be described thus: not read.

Substrate in data set [3]: COc1ccc([C@@H]2CC(=O)c3c(O)cc(O)cc3O2)cc1O
The experiment in a line: not read.

Substrate in data set [4]: O=C1C[C@@H](c2ccc(O)c(O)c2)Oc2cc(O)cc(O)c21
The experiment in a line: Sulfation of flavonoids by recombinant hSULT1A1. The data set is classed as in vitro ADME, human.

Substrate in data set [5]: Oc1cc(O)c2c(c1)O[C@H](c1ccc(O)c(O)c1)[C@H](O)C2
The data set can be described thus: Sulfation of flavonoids by recombinant hSULT1A1. It is filed as in vitro ADME, human.

B1: hSULT1A3 (Homo sapiens) (protein)
chain: MELIQDTSRPPLEYVKGVPLIKYFAEALGPLQSFQARPDDLLINTYPKSGTTWVSQILDMIYQGGDLEKCNRAPIYVRVPFLEVNDPGEPSGLETLKDTPPPRLIKSHLPLALLPQTLLDQKVKVVYVARNPKDVAVSYYHFHRMEKAHPEPGTWDSFLEKFMAGEVSYGSWYQHVQEWWELSRTHPVLYLFYEDMKENPKREIQKILEFVGRSLPEETMDFMVQHTSFKEMKKNPMTNYTTVPQELMDHSISPFMRKGMAGDWKTTFTVAQNERFDADYAEKMAGCSLSFRSEL
A word on the Km: it is the concentration of substrate that gives half-maximal velocity. A word on the Vmax: it is the top rate of the reaction or transport when substrate is in excess. As for B1, in the data set “not read [1]”, the Km was 193 ± 3.3 µM, the Vmax came to 0.269 µmol/min/mg and the Vmax/Km stood at 1390 µL/min/mg. Further, in “not read [2]”, the Km was determined as 437 ± 10.1 µM, the Vmax is 0.442 µmol/min/mg and the Vmax/Km stood at 1010 µL/min/mg. Also, the Km in “not read [3]” amounted to 179 ± 3.7 µM.

B2: hSULT1A1 (Homo sapiens) (protein)
chain: MELIQDTSRPPLEYVKGVPLIKYFAEALGPLQSFQARPDDLLISTYPKSGTTWVSQILDMIYQGGDLEKCHRAPIFMRVPFLEFKAPGIPSGMETLKDTPAPRLLKTHLPLALLPQTLLDQKVKVVYVARNAKDVAVSYYHFYHMAKVHPEPGTWDSFLEKFMVGEVSYGSWYQHVQEWWELSRTHPVLYLFYEDMKENPKREIQKILEFVGRSLPEETVDFVVQHTSFKEMKKNPMTNYTTVPQEFMDHSISPFMRKGMAGDWKTTFTVAQNERFDADYAEKMAGCSLSFRSEL
On to B2, for which the Michaelis constant (Km) stood at 63.0 ± 0.6 µM in “not read [3]”, 80.8 ± 3.3 µM in data set [4] and 301 ± 89.0 µM in data set [5]. Further, the Vmax is 0.0927 µmol/min/mg in “not read [3]”, 0.0986 µmol/min/mg in data set [4] and 0.188 µmol/min/mg in data set [5]. Moreover, the Vmax/Km in the data set “not read [3]” worked out at 1470 µL/min/mg; in data set [4], 1220 µL/min/mg; in data set [5], 620 µL/min/mg.
